Results published in PMC5602631, “Crimean-Congo hemorrhagic fever virus nucleocapsid protein has dual RNA binding modes”.
Values joined by “and” are separate entries in the source; they are usually repeats but may differ in a detail not shown here. Equal entries are not always repeated.

Columns and labels:
[1] = biological target: CCHFV nucleocapsid protein (N) (Crimean-Congo hemorrhagic fever virus strain 10200) (UniProt P89522); test: filter binding; details: 40 mM Tris-HCl pH 7.4, 80 mM NaCl (or 250 mM), 20 mM KCl, 1 mM DTT, room temperature, 30-45 min
CCHFV nucleocapsid protein (N) (Crimean-Congo hemorrhagic fever virus strain 10200), sequence (P89522 whole entry): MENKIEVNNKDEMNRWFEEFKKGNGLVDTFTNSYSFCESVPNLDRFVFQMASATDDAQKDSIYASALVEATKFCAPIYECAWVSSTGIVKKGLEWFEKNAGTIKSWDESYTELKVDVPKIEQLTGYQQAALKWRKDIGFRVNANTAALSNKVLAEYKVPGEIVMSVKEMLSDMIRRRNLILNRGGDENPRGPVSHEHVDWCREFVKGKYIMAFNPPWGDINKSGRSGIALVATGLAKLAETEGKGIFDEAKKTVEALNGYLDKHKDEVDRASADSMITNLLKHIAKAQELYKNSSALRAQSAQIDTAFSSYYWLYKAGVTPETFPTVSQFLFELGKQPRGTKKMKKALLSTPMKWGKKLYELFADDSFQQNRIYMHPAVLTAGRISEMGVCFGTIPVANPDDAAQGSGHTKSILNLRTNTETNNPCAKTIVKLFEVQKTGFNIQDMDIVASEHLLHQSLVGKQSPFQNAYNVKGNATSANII

[2] = biological target: CCHFV nucleocapsid protein (N) (Crimean-Congo hemorrhagic fever virus strain 10200) (UniProt P89522); test: BLI; details: 40 mM Tris-HCl pH 7.4, 80 mM NaCl (or 250 mM), 20 mM KCl, 1 mM DTT, room temperature, 30-45 min
[3] = biological target: CCHFV nucleocapsid protein (N) (Crimean-Congo hemorrhagic fever virus strain 10200) (UniProt P89522); test: tryptophan fluorescence; details: 40 mM Tris-HCl pH 7.4, 80 mM NaCl (or 250 mM), 20 mM KCl, 1 mM DTT, room temperature, 30-45 min
[4] = biological target: CCHFV nucleocapsid protein (N) (Crimean-Congo hemorrhagic fever virus …, UniProt P89522 1-482); test: competition; vs labeled 5' NCR; 40 mM Tris-HCl pH 7.4, 80 mM NaCl (or 250 mM), 20 mM KCl, 1 mM DTT, room temperature, 30-45 min; details: protein: recombinant; tags: His (C-terminal per Methods; Results says N-terminal); biotin (BLI); none (fluorescence); single strand
CCHFV nucleocapsid protein (N), sequence (P89522 whole entry): as above

5' NCR 100 nt
Kd [1]: 131 nM

5' NCR (30 nt)
Kd [2]: 131 nM | Kd [3]: 167 nM | Kd [1]: 121 nM and 147 nM

Wild type panhandle
Kd [2]: 41 nM | Kd [3]: 48 nM | Kd [1]: 42 nM and 47 nM

5' NCR 60 nt
Kd [1]: 131 nM

Gluc RNA
Kd [1]: 55 nM and 43 nM

CCHF S-segment vRNA
Kd [1]: 55 nM

Nonviral ssRNA (30 nt)
Kd [1]: 121 nM

B1: 3' NCR (30 nt) (ssRNA)
RNA: UGGGCGUAAGCGGCACGUGUUUCUUUGAGA
binding result [4]: binds
